These results are taken from patent US20140371152A1 (DOSHISHA, published 2014).

This experiment deals with T1, Amyloid β 1-9 polypeptide corresponding to the N-terminal region of βCTF.
T1 construct: Screening target and KD partner
The experiment in a line: dissociation constant against the Amyloid β 1-9 peptide; method not stated.

B1: #4 polypeptide (peptide)
peptide: Ac-MHLVICDCYCTTDICYCYSCTPN-NH2
modifications: cysteine pairing not given here
notes: Synthetic peptide found by screening against Amyloid β 1-9; used dissolved in DMSO; also called peptide name #4
Usually Kd stands for the concentration at which binding is half-saturated. In the case of B1, the Kd was 2.62 µM.
